In publication PMC9308819 (Nature Communications, 2022):
Positions count from the first letter of the chain named.

B1: Rab3A, purified, nucleotide-loaded (natural protein, human, UniProt P20336 1-220, looked up)
chain: MASATDSRYGQKESSDQNFDYMFKILIIGNSSVGKTSFLFRYADDSFTPAFVSTVGIDFKVKTIYRNDKRIKLQIWDTAGQERYRTITTAYYRGAMGFILMYDITNEESFNAVQDWSTQIKTYSWDNAQVLLVGNKCDMEDERVVSSERGRQLADHLGFEFFEASAKDNINVKQTFERLVDVICEKMSESLDTADPAVTGAKQGPQLSDQQVPPHQDCAC
notes: Rab3A, human; Loaded with GppNHp (aSEC, ITC) or mant-GppNHp (stopped flow); also called Rab3A_(GppNHp); Rab3A_(mantGppNHp); source: E. coli BL21 Codon-Plus (DE3)-RIL, purified (Ni Sepharose, TEV cleavage, gel filtration)
B2: Rep15 (protein)
chain: VPVVCEVVSEAIVHAAQKLKEYLGFEYPPSKLCPAANTLNEIFLIHFITFCQEKGVDEWLTTTKMTKHQAFLFGADWIWTFWGSNKQIKLQLAVQTLQMSSPPPVESKPCDLSNPESRVEESSWKKSRFDKLEEFCNLIGEDCLGLFIIFGMPGKPKDIRGVVLDSVKSQMVRSHLPGGKAVAQFVLETEDCVFIKELLRNCLSKKDGLREVGKVYISIL

Legend:
Rep15 D158A [1] = target: T1, Rep15 D158A (human, UniProt Q6BDI9 1-236, N101D | D158A); experiment: ITC
T1 sequence: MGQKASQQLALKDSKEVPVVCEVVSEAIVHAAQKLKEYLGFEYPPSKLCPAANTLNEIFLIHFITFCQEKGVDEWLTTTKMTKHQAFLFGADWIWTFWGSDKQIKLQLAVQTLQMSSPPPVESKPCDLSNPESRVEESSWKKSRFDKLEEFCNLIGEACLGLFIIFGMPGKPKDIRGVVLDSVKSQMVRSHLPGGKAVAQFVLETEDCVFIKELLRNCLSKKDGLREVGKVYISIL

Rep15 Q85A [2] = target: T2, Rep15 Q85A (human, UniProt Q6BDI9 1-236, N101D | Q85A); experiment: ITC
T2 sequence: T1 sequence with Q85A, A158D

Rep15 W140A [3] = target: T3, Rep15 W140A (human, UniProt Q6BDI9 1-236, N101D | W140A); experiment: ITC
T3 sequence: T1 sequence with W140A, A158D

Rep15 L88A [4] = target: T4, Rep15 L88A (human, UniProt Q6BDI9 1-236, N101D | L88A); experiment: ITC
T4 sequence: T1 sequence with L88A, A158D

Rep15 Q85A [5] = target: T5, Rep15 Q85A (human, UniProt Q6BDI9 1-236, N101D | Q85A); experiment: ITC; 500/600 µM GppNHp/GTP Rab titrated into 50/60 µM Rep15; 20 mM Hepes 8.0, 50 mM NaCl, 1 mM MgCl2, 1 mM TCEP; one-site-binding model; conditions: both partners purified
T5 construct: Limits probably as full-length wild type; source: E. coli BL21 Codon-Plus(DE3)-RIL, purified
T5 sequence: T1 sequence with Q85A, A158D

Rep15 L88A [6] = target: T6, Rep15 L88A (human, UniProt Q6BDI9 1-236, N101D | L88A); experiment: as above; conditions: both partners purified
T6 construct: Limits probably as full-length wild type; source: E. coli BL21 Codon-Plus(DE3)-RIL, purified
T6 sequence: T1 sequence with L88A, A158D

Rep15 V135A = target: T7, Rep15 V135A (human, UniProt Q6BDI9 1-236, N101D | V135A); experiment: as above; conditions: both partners purified
T7 construct: source: E. coli BL21 Codon-Plus(DE3)-RIL, purified
T7 sequence: T1 sequence with V135A, A158D

Rep15 W140A [7] = target: T8, Rep15 W140A (human, UniProt Q6BDI9 1-236, N101D | W140A); experiment: as above; conditions: both partners purified
T8 construct: source: E. coli BL21 Codon-Plus(DE3)-RIL, purified
T8 sequence: T1 sequence with W140A, A158D

Rep15 H84A = target: T9, Rep15 H84A (human, UniProt Q6BDI9 1-236, N101D | H84A); experiment: as above; conditions: both partners purified
T9 construct: Limits probably as full-length wild type; source: E. coli BL21 Codon-Plus(DE3)-RIL, purified
T9 sequence: T1 sequence with H84A, A158D

Rep15 D158A [8] = target: T10, Rep15 D158A (human, UniProt Q6BDI9 1-236, N101D | D158A); experiment: as above; conditions: both partners purified
T10 construct: Limits probably as full-length wild type; source: E. coli BL21 Codon-Plus(DE3)-RIL, purified
T10 sequence: T1 sequence

[9] = target: T11, Rep15, full length (natural N101D variant) (human, UniProt Q6BDI9 1-236, N101D); experiment: stopped-flow fluorescence intensity; association; 0.5 µM mant-GppNHp Rab3A mixed with increasing Rep15 (2–14 µM); 25 °C; 20 mM Hepes 8.0, 50 mM NaCl, 1 mM MgCl2, 2 mM DTE; koff from the intercept, KD as koff/kon; conditions: both partners purified
T11 construct: also called full-length Rep15; Rab15 effector protein
T11 sequence (looked up): T1 sequence with A158D

Rab3A = target: T12, Rab3A (Homo sapiens (Human), UniProt P20336); experiment: ITC
T12 chain: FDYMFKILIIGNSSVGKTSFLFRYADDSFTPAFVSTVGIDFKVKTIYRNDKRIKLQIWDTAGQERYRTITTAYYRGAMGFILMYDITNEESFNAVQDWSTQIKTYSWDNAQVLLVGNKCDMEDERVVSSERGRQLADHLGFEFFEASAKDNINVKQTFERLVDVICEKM

Rab27A = target: T13, Rab27A (Homo sapiens (Human), UniProt P51159); experiment: ITC
T13 chain: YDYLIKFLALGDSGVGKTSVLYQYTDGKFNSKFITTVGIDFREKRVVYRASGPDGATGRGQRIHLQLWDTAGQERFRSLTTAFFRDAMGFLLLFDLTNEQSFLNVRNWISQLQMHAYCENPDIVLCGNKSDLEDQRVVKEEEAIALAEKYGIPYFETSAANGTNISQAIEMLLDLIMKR

Rab3B = target: T14, Rab3B (Homo sapiens (Human), UniProt P20337); experiment: ITC
T14 chain: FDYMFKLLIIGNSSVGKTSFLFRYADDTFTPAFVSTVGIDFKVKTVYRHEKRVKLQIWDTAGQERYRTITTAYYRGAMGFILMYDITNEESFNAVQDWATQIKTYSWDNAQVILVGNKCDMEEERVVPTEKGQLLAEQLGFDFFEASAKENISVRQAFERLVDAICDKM

Rab3D = target: T15, Rab3D (Homo sapiens (Human), UniProt O95716); experiment: ITC
T15 chain: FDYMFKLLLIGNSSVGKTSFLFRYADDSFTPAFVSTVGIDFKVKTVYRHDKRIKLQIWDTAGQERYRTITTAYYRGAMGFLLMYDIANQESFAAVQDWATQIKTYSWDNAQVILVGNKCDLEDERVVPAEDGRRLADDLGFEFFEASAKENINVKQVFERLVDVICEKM

Binder | Kd (Rep15 D158A [1]) [nM] | Kd (Rep15 Q85A [2]) [nM] | Kd (Rep15 W140A [3]) [nM] | Kd (Rep15 L88A [4]) [nM] | fold reduction in affinity against wild-type Rep15 (Rep15 Q85A [5]) [fold] | fold reduction in affinity against wild-type Rep15 (Rep15 L88A [6]) [fold] | binding result (Rep15 V135A) | binding result (Rep15 W140A [7]) | binding result (Rep15 H84A) | fold reduction in affinity against wild-type Rep15 (Rep15 D158A [8]) [fold] | Kd [9] [nM] | koff [9] [s⁻¹] | kon [9] [M⁻¹ s⁻¹] | Kd (Rab3A) [nM] | Kd (Rab27A) [nM] | Kd (Rab3B) [nM] | Kd (Rab3D) [nM]
B1 | 5590 | 18500 | 400 | 9700 | > 30 | 20 | binds | binds | binds | 12 | 440 to 530 | 4.29 | 9.72e+06 | – | – | – | –
B2 | – | – | – | – | – | – | – | – | – | – | – | – | – | 480 | 86200 | 2160 | 790
